{
  "source": "patent US7563610",
  "about": "(Takeda / Millennium, dated 2009)",
  "proteins": {"B1": {"name": "IspA (farnesyl pyrophosphate synthase) from E. coli, full length with non-cleavable N-terminal six histidine tag (enzyme)", "chain": "MGSDKIIHHHHHHTLMDFPQQLEACVKQANQALSRFIAPLPFQNTPVVETMQYGALLGGKRLRPFLVYATGHMFGVSTNTLDAPAAAVECIHAYSLIHDDLPAMDDDDLRRGLPTCHVKFGEANAILAGDALQTLAFSILSDADMPEVSDRDRISMISELASASGIAGMCGGQALDLDAEGKHVPLDALERIHRHKTGALIRAAVRLGALSAGDKGRRALPVLDKYAESIGLAFQVQDDILDVVGDTATLGKRQGADQQLGKSTYPALLGLEQARKKARDLIDDARQSLKQLAEQSLDTSALEALADYIIQRNK", "notes": "Two copies form the dimer in the crystal; also called FPPS"}},
  "biological_target": "the molecule itself",
  "experiment": "X-ray crystal structure (homodimer in the asymmetric unit)",
  "data": [
    {"protein": "B1", "values": [
      {"measurement": "binding result", "value": "binds"}
    ]}
  ]
}
